According to patent publication US20250161441A1, “MEDICINE COMPRISING COMBINATION OF ANTI-MUTANT-CALR ANTIBODY AND ANOTHER DRUG” (JUNTENDO EDUCATIONAL FOUNDATION, priority 2022, published 2025):
Substitutions are numbered along the chain they refer to.

B1: B3: rat monoclonal anti-mutant CALR antibody from hybridoma clone B3, VH SEQ ID NO: 6, VL SEQ ID NO: 7 (antibody, listed as Rattus norvegicus, V domains shown)
VH: QVQLQQSGAELVKPGSSVKISCKASGYTFTRNFIHWIKQQPGNGLEWIGWIFPGDGDTEYNQKFNGKATLTADKSSSTAYMQLSSLTSEDSAVYFCARGNYNYEYFDYWGQGVMVTVSS
VL: DIQMTQSPASLSASLGETVSIECLASEDIYSYLAWYQQKPGKSPQLLIFAANRLQDGVPSRFSGSGSGTQFSLKISGMQPEDEGDYFCLQGSKFPYTFGPGTKLELN
B2: C6: rat monoclonal anti-mutant CALR antibody from hybridoma clone C6, VH SEQ ID NO: 8, VL SEQ ID NO: 9 (antibody, listed as Rattus norvegicus, V domains shown)
VH: QVQLQQSGAELVKPGSSVKISCKASGYTFTSYFVHWIKQQPGDGLEWIGWIYPGDGDTEYNHKFNGKSTLTADRSSSTAYMQLSSLTSEDSAVYFCARGNYYDGREVMDAWGQGASVTVSS
VL: DVVLTQTPPTLSATIGQSVSISCRSSQSLLDSDGETYLNWLLQRPGQSPQLLIYSVSNLESGVPNRFSGSGSETDFTLKISGMEAEDLGVYYCMQATHGPYTFGAGTKLELK
B3: G1: rat monoclonal anti-mutant CALR antibody from hybridoma clone G1, VH SEQ ID NO: 10, VL SEQ ID NO: 11 (antibody, listed as Rattus norvegicus, V domains shown)
VH: B2 VH with H62Q, S68A
VL: B2 VL with S48C, M83V, A96G

Tested on: Del 52 type or Ins 5 type mutant CALR protein
Assay: Verification of recognition of mutant CALR proteins (SDS-PAGE / immunoblot of culture supernatants)
Format: binding, human
Details: culture supernatants of UT-7/TPO cells expressing FLAG-tagged Del 52 or Ins 5 mutant CALR
Description: UT-7/TPO cells expressing a Del 52 type or Ins 5 type mutant CALR having a FLAG-tag inserted downstream of the signal sequence at the N-terminus were cultured, and culture supernatants containing the secreted mutant CALR proteins were prepared by centrifugation (1,600 g×5 mins, 4° C.). The culture supernatants were heat-treated in the presence of SDS and a reducing agent, then resolved on a gel by SDS polyacrylamide electrophoresis, electrically transferred on a polyvinylidene difluoride (PVDF) membrane, and reacted with a TBS-T solution containing 5% skim milk at room temperature for 1 hour, followed by reaction with a 5% BSA/TBS-T solution containing a rat clone B3, C6, or G1 antibody or mouse anti-[…] tag antibody (FUJIFILM Wako Pure Chemical Corporation) at 4° C. overnight. After washing with a TBS-T solution, the reaction products were each reacted with a 5% skim milk/TBS-T solution containing a peroxidase-labeled goat anti-rat IgG antibody (Jackson Immuno Research Inc.) or a peroxidase-labeled goat anti-mouse IgG antibody (Jackson Immuno Research Inc.) at room temperature for 1 hour. After washing with a TBS-T solution, the PVDF membranes were reacted with a peroxidase luminescence reagent. The resulting signals were detected using a FUSION image pickup apparatus.

Row | Molecule | Recognition of full-length and cleaved mutant CALR proteins
1 | B1 | recognize the full-length and cleaved mutant CALR proteins
2 | B2 | recognize the full-length and cleaved mutant CALR proteins
3 | B3 | recognize the full-length and cleaved mutant CALR proteins
